Consider three molecules from article PMC9144871 (International Journal of Molecular Sciences, 2022).

For data set [1], the target named is T1, SARS-CoV-2 spike RBD-His (SARS-CoV-2, UniProt P0DTC2). Description: SPR. To be noted: both partners purified.
Data set [2] deals with the molecule itself. The data set can be described thus: SEC-MALS; analytical SEC-LS: Superdex 75 increase 10/30 with miniDAWN TREOS and refractive index detector; about 1.0 mg protein loaded; 50 mM Tris-HCl, 150 mM NaCl, 2.5% glycerol, pH 7.8; 0.5 mL/min. A general note: Size exclusion chromatography separates by hydrodynamic size, large species first.
Data set [3] addresses T1, SARS-CoV-2 spike RBD-His. Description: SPR. As to conditions: both partners purified. This is another data set of the same source.
Data set [4] deals with the molecule itself. The data set can be described thus: mass spectrometry; S-plug3 checked for its dimeric state by mass spectrometry; conditions not given.

As usually defined, the Kd is the equilibrium constant for the complex coming apart. The low end stands for tighter binding, the high end for weaker binding. As a reminder, the stoichiometry N is the number of molecules, sites or subunits per partner or assembly.

B1: S-plug (designed binder)
chain: STIEEQAKTFLDKFNHEAEDLFYQSSLASWNYNTNITEENVQNMNNAGDKWSAFLKEQSTLAQMYPLQEIQNQTVKQQLQALQQN
notes: also called prototype S-plug
B1 displayed a dissociation constant Kd with SARS-CoV-2 spike RBD-His [1] of 50 to 200 nM. Moreover, the “stoichiometry N” value in data set [2] was 2.

B2: S-plug2 (designed binder)
chain: SAMEEQAKFFLDKLQHELEDTQYQLLYKALALNKSQQEELQKQYKKTYDEYVTLAKKWAKAASSIPLNSITDEKLYKAMEKTASS
notes: also called thermo-stabilised S-plug; mutated form of S-plug
For B2, in the data set with SARS-CoV-2 spike RBD-His [3], the Kd came to 61.7 ± 2.3 nM. Further, in data set [2], the “stoichiometry N” value was 2.

B3: S-plug3 (designed binder)
chain: SAMEEQAKFFLDKLQHELEDTQYQLLYKALALNKSQQEELQKQYKKTYDEYVTLAKKWAKAASSIPLNSITDEKLYKAMEKTASSPPGC
notes: also called S-plug2 with C-terminal arm PPGC; cysteine-locked S-plug
As to B3, the Kd with SARS-CoV-2 spike RBD-His [3] turned out to be 39.5 ± 1.1 nM. Further, the binding result in data set [4] is on record as “binds”.
